Laboratory results: patent publication US20070077617
Substitutions are numbered along the chain they refer to. Names may count otherwise.

B1: OmpT protease variant OmpT D97V (protein)
chain: STETLSFTPDNINADISLGTLSGKTKERVYLAEEGGRKVSQLDWKFNNAAIIKGAINWDLMPQISIGAAGWTTLGSRGGNMVDQDWMDSSNPGTWTVESRHPDTQLNYANEFDLNIKGWLLNEPNYRLGLMAGYQESRYSFTARGGSYIYSSEEGFRDDIGSFPNGERAIGYKQRFKMPYIGLTGSYRYEDFELGGTFKYSGWVESSDNDEHYDPGKRITYRSKVKDQNYYSVAVNAGYYVTPNAKVYVEGAWNRVTNKKGNTSLYDHNNNTSDYSKNGAGIENYNFITTAGLKYTF
B2: OmpT protease variant OmpT D97S (protein)
chain: B1 chain with V97S
B3: OmpT protease variant OmpT D97E (protein)
chain: B1 chain with V97E
B4: OmpT protease variant OmpT D97G (protein)
chain: B1 chain with V97G
B5: OmpT protease variant OmpT D97H (protein)
chain: B1 chain with V97H
B6: OmpT protease variant OmpT D97Y (protein)
chain: B1 chain with V97Y
B7: OmpT protease variant OmpT D97Q (protein)
chain: B1 chain with V97Q
B8: OmpT protease variant OmpT D97N (protein)
chain: B1 chain with V97N
B9: OmpT protease variant OmpT D97C (protein)
chain: B1 chain with V97C
B10: OmpT protease variant OmpT D97L (protein)
chain: B1 chain with V97L
B11: OmpT protease variant OmpT D97F (protein)
chain: B1 chain with V97F
B12: OmpT protease variant OmpT D97P (protein)
chain: B1 chain with V97P
B13: OmpT protease variant OmpT D97M (protein)
chain: B1 chain with V97M
B14: OmpT protease variant OmpT D97K (protein)
chain: B1 chain with V97K
B15: OmpT protease variant OmpT D97R (protein)
chain: B1 chain with V97R
B16: OmpT protease variant OmpT D97T (protein)
chain: B1 chain with V97T
B17: OmpT protease variant OmpT D97W (protein)
chain: B1 chain with V97W
B18: OmpT protease variant OmpT D97I (protein)
chain: B1 chain with V97I
B19: OmpT protease variant OmpT D97A (protein)
chain: B1 chain with V97A

Molecular target: fusion protein PRV
Sequence (chain, as listed by the source): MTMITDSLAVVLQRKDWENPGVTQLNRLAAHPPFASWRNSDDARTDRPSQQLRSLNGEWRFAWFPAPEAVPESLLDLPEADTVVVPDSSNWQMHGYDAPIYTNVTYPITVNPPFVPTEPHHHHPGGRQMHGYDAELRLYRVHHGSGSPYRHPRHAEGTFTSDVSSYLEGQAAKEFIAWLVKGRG

Protein	relative cleavage efficiency
B1	less than 3.0%
B2	< 3%
B3	5%
B4	less than 3.0%
B5	7.8%
B6	less than 3.0%
B7	< 3%
B8	< 3%
B9	3.2%
B10	< 3%
B11	< 3%
B12	less than 3.0%
B13	3%
B14	less than 3.0%
B15	less than 3.0%
B16	< 3%
B17	less than 3.0%
B18	less than 3.0%
B19	< 3%
